B1: TPR t1 (parent)
chain: GACCAAUCUGCCCUCAGAGCUCGAGAACAUCUUCGGAUGCAGAGGAGGCAGGCUUCGGUGGCGCGAUAGCGCCAACGUCCUCAACCUCCAAUGCAUCCCACCACAUGAUGAUGCCUGAAGAGCCUUGGUUUUUUG

Variants of: B1
Assay: polymerase ribozyme fitness, log enrichment relative to wild type (log ratio); higher = more active; in vitro selection for triplet polymerase activity
In short: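 Mutant libraries of each subunit of a heterodimeric triplet polymerase ribozyme were built by PCR and transcribed. Each library went through one round of in vitro selection in triplicate: annealing with biotinylated primer, partner subunit and triplets, frozen incubation at −7 °C, gel excision of extended constructs, streptavidin-bead capture and RT-PCR. Input and output libraries were Illumina-sequenced; only genotypes with ≥10 input reads and ≥1 read per output were kept. Fitness is log2(genotype enrichment/wild-type enrichment), using inverse-variance-weighted replicate averages.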

Variant	polymerase ribozyme fitness (log ratio)
G58C C82G U87G G93C C123A	-0.69
U59A A66C C124A	0.00699
G60U U112G U116C	-1.99
U59C U106G U112G	-2.31
U59C C124A	2.03
G61A A121G	1.21
G58C C80G C88A	-6.49
G61A A111U U116C	-4.5
G58C U78G A90C A118U G127C	-2.89
G60C U109G G120A	-5.9
U59C G127U	-0.462
G60A C94U C124U	1.59
U59A C124A	1.62
G57C C70U	-0.607
G60A A100U	-0.621
G57U C62G A121G U130A	-0.352
G58A A111C A119C G120U G127U	-1.16
G61A C64U C72U A91U	-1.32
G57C G63A A100U U112C U125C	-0.23
G58U G61C A90G	0.258
G60C C94A C102U U106A	-6.72

Variant	polymerase ribozyme fitness (log ratio)
G57C C62A G122A	-3.31
G61A C97A	-3.78
G57U G61C U92C	-2.88
G60A C80A C88A	-3.61
G58C C124A	1.82
G60C C102A	-3.75
G57C G60U A100U U130G	-0.0419
G60C C124U G135A	2.05
G57C G61A C97G	-4.41
U59A C104U	0.251
G60A G69U C82U C85G U129A	-4.53
U59G A111C	0.213
G61A C73U A91C C101A	-2.91
G61A C88U A100U G120A	-0.447
G60U G93U A108G G120U	-3.22
G57U C62U U67C U87G C101G G113C	-6.27
G57U C70U C76G U131C	-0.726
G60A U112C	1.25
G57C C97G	-4.65
G57C C97U	-0.494
G61A U129G U130A	-2.53

Variant	polymerase ribozyme fitness (log ratio)
G58C U96G C104U	-0.405
U59A C88U A118U	0.167
G61A C115A U129A U132A	-3.87
G60A C79A A84U	-2.32
G60C G117C A121C	-4.85
G61A C98U	-0.37
G61A C98A	-4.75
G60U G117C	-3.52
G60U G117A	-0.487
G60C C86U U106A	-0.567
G58C G63C	-2.61
G61A C64U	-1.86
G57U C123U	0.41
G60U A100C	-1.26
G61A U87C	-0.201
G61A G71U	-1.6
G60C G61A C101A C123A U129A	-4.67
G61A C64U U81G G120U	-7.13
G60U C89G U96G U129A	-3.9
G60C G110C	-4.39
U59A C123G G127A	0.53

Variant	polymerase ribozyme fitness (log ratio)
G60A C88U G127A	-1.7
G60C U129C	-0.277
G57C C62U	-0.549
G60C G93U C114A	-2.51
G57C U81C	0.391
G61A U116G A121U	0.807
G57C G135U	-0.876
G61A G77A A95U	-1.47
G57C C99U A118G	-4.32
G58C U129G	-0.485
G57U A91G C114A U131A	-3.11
G57U C94A	-1.08
G61A C98U G120U	-0.011
G60C A74U U81G C115A	-3.12
G61A U78G C123A U133A	0.482
U59G C70U C101A	-2.5
G60C A83C C115U	-1.05
G60U U78A C89G	-1.87
G61A C79A	-2.09
G60A C82A A95G	0.0608
U59C A84G	-1.4

— the RNAGym collection of RNA variant scans (doi:10.1073/pnas.2313332121)
